{
  "source": "patent US20160002297A1",
  "about": "“THERAPEUTIC AGENTS” (NATIONAL UNIVERSITY OF SINGAPORE, priority 2013, published 2016)",
  "key": {"[1]": {"target": "T1, GRP78 (Homo sapiens, UniProt P11021)", "assay": "Co-immunoprecipitation with GRP78", "type": "binding", "description": "(§1) The membrane fraction of HUVECs was isolated by using Mem-PER Eukaryotic Membrane Protein Extraction Kit which was also obtained from Pierce (Rockford, Ill., USA).\n1 μg antibodies of GRP78 were pre-immobilized on 20 μl protein A/G agarose beads from Santa Cruz (Santa Cruz, Calif., USA) for 1 h at room temperature. Unbound antibodies were washed out by 100 mM Tris-Hcl (pH 8.0). Then 1 μg ISM and 1 μg GRP78 (or 1 mg membrane fraction protein lysates containing GRP78) were incubated with GRP78 antibody mounted beads for 4 h at 4° C. After removing the unbound proteins, precipitates were resolved by SDS-PAGE and analyzed for the presence of ISM, GRP78 or AACs by Western blotting."}, "[2]": {"system": "HUVECs", "assay": "Uptake of FITC-labelled peptide by cultured HUVECs", "type": "cell-based, human", "details": "compared to FITC-labeled cRAA peptide", "text": "FIG. 11 FITC-RKD peptide enters cultured HUVECs likely by endocytosis;"}, "[3]": {"system": "4T1 breast carcinoma cells", "assay": "FITC-RKD binding to the 4T1 breast cancer cell surface in vitro", "type": "cell-based", "details": "24 h treatment", "description": "FIG. 12a FITC-RKD peptide binds to cell-surface GRP78. […] 4T1 breast carcinoma cells were treated with FITC-RKD (green) 24 h. Cells were fixed and stained by Phalloidin (red) to represent the cell outline. Nuclei were counter stained by DAPI (blue)."}, "[4]": {"system": "B16 melanoma", "assay": "FITC-RKD targeting to subcutaneous B16 tumor in mice after intravenous delivery", "type": "in vivo, mouse", "details": "delivered intravenously", "text": "FIG. 9 FITC labelled cRKD (FITC-RKD) targets to subcutaneous B16 tumor in mice when delivered intravenously.\nFIG. 10 FITC-RKD targets both the B16 melanoma tumor cells and tumor ECs when delivered intravenously;"}, "[5]": {"target": "T2, GRP78, purified recombinant protein (UniProt P11021 19-654, limits assumed)", "T2 construct": "also called glucose-regulated protein 78 kDa; BiP", "T2 sequence (P11021 19-654 limits assumed)": "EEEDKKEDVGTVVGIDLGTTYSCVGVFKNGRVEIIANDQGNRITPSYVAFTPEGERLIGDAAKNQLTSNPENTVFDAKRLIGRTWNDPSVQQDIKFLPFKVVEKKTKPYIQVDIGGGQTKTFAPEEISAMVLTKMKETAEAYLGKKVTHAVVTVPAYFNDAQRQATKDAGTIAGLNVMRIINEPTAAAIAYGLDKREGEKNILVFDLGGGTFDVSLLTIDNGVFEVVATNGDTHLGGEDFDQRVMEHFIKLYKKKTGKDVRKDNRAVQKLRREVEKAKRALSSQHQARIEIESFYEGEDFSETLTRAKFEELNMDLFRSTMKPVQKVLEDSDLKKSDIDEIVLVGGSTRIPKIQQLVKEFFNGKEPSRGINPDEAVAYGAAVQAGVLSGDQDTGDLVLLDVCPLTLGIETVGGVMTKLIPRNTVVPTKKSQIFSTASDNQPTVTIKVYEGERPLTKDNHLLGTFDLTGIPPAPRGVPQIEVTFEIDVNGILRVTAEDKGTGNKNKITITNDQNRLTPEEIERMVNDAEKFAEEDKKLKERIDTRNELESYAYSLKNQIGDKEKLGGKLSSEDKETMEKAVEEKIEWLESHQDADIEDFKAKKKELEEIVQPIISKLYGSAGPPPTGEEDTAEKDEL", "assay": "ELISA solid phase-binding assay, GRP78 titrated on the coated ligand"}, "[6]": {"system": "ECs", "assay": "Cell attachment (EC adhesion) assay", "type": "cell-based", "details": "peptide coated on plastic surface", "description": "96-well plates were coated with 50 μl of 1 μM ISM at 4° C. overnight. Nonspecific binding sites were blocked with 1% BSA for 2 h at 37° C. ECs were harvested and incubated in CSC basal medium containing 4 μg/ml neutralizing antibodies or control IgG for 30 min. 2[…]104 cells were plated to each well and allowed to attach for 60 min at 37° C. Attached cells were fixed by 10% formalin and stained with 0.2% crystal violet. Absorbed crystal violet was extracted by 10% acetic acid and quantified by measuring the absorbance of eluted dye at 595 nm with a microplate reader."}, "[7]": {"target": "T1, GRP78", "assay": "ELISA solid phase-binding assay for binding affinity to GRP78", "description": "(§2) ELISA solid phase-binding assay was used to determine the dissociation constant between ISM or cyclic peptide and GRP78 as previously described with minor modification (Nishiuchi, Takagi et al. 2006). 96-well plates were coated with 50 μl of 10 nM cyclic peptide at 4° C. overnight. Nonspecific binding sites were blocked with 1% BSA for 2 h at room temperature. Increasing concentrations of GRP78 were incubated with immobilized cyclic peptide. After washing, the amount of bound GRP78 was quantified by ELISA. The value for Kd was calculated by GraphPad Prism software."}, "[8]": {"system": "endothelial cells (ECs)", "assay": "Apoptosis assay (Cell Death ELISA) in cultured ECs", "type": "cell-based", "description": "ECs (2×10^4 cells per well) in 96-well plate were starved in 2% FBS basal CSC medium for 3 h. Cells were then incubated with peptides of various concentrations and 15 ng/ml VEGF for 24 h. Apoptosis was detected by measuring cytosolic oligonucleosome-bound DNA using a Cell Death ELISA kit purchased from Roche (USA). Plots represented the mean of 3 wells of apoptotic cells in 96 well plate (±SEM)."}, "[9]": {"system": "HUVECs", "assay": "Tube formation assay on Matrigel", "type": "cell-based, human", "description": "HUVECs (1×10^4) were pre-treated with peptides of various concentrations for 30 min before being plated onto the polymerized Matrigel (Millipore, USA) in 15-well μ-slide (Ibidi, Germany). After 4-6 h, capillary network was documented using Zeiss Axiovert200 inverted microscope (Maple Grove, Minn., USA). Tube length was quantified by measuring the length of branches in representative fields using ImageJ software. Plots represented the mean of 3 wells of tubular length in 15-well μ-slide (t SEM)."}, "[10]": {"target": "T2, GRP78, purified recombinant protein", "assay": "ELISA solid phase-binding assay, compared with cRKD", "description": "as §2\nUsing similar ELISA method, we determined the binding affinity between kRKD peptide and GRP78 using purified recombinant GRP78 protein."}, "[11]": {"system": "B16F10 melanoma", "assay": "Mouse tumorigenesis: subcutaneous B16F10 melanoma, intravenous treatment from day 0", "type": "in vivo", "description": "FIG. 4 Recombinant ISM and ISM derived cRKD peptide inhibit B16F10 tumour growth in vivo. A. Tumour growth curve in mice. X-axis represents the days after 5×10^5 tumour cell inoculation. Groups consisted of control mice receiving no treatment, recombinant ISM, cRKD peptide and its control-cyclic RAA peptide, given in six doses of 250 μg/mouse through tail vein injection on days 0, 2, 4, 6, 8, and 10 (5 mice in each group, each mice with one tumour). **: p<0.01,*: p<0.05, n=5. B. Tumour weight at the end of the experiment (14 days after tumour cell inoculation). C. Recombinant ISM and cRKD peptide inhibits B16F10 tumour growth. […] Paraffin sections of tumors from mice groups treated by control, ISM, cRAA and cRKD peptides were probed for microvessel density, tumor cell proliferation and apoptosis through immunofluoresence staining using anti-CD31 (A), anti-PCNA (B) and TUNEL staining (C) respectively. Representative photos are shown. (D) Quantification of microvessel density. Microvessel density is the number of microvessels per microscopic field. (E) Quantification of cell proliferation in tumor sample. Cell proliferation is presented as the percentage of PCNA positive cells out of the total number of cells (DAPI positive cells) in the microscopic field. (F) Quantification of apoptosis in tumor. Apoptosis is quantified as the percentage of TUNEL positive cells out of the total number of cells (DAPI positive cells) in the microscopic field. Plots represent the mean of 3 fields per section, 3 sections per tumor and 2 tumors per group (±SEM). ** P≦0.01, * P≦0.05; Adult 8-week-old female C57BL/6J mice were used in this study. Animal care and experimentation was carried out under the institutional guidelines issued by the local institutional animal care and use committee (IACUC; protocol 066/12). 5×10^5 B16F10 cells in 0.1 ml PBS were injected subcutaneously into the dorsal left flank of the mouse. Twenty mice were assigned into 4 different groups consisted of control mice receiving no treatment, recombinant ISM, cyclic RKD peptide and its peptide control-cyclic RAA peptide, given in six doses of 250 μg through tail vein injection on days 0, 2, 4, 6, 8, and 10 (5 mice in each group, each mice with one tumor). Health status of the mice was monitored over two weeks and visible tumor size were measured daily by calipers after 8 days until the end point (day 14). Tumor volume was calculated using the following formula: 0.52×length×(width)^2 mm^3, where the largest dimension of the tumor is considered as the length and the width is the perpendicular dimension. On day 14, mice were sacrificed, and their dorsal flank was opened and photographed to exam the vascularization. Then tumors were excised and weighed followed by either fixing in 4% paraformaldehyde for sectioning or snap-freezing in liquid nitrogen for further analysis. Paraffin-embedded tissue sections of 5 μm were deparaffinized by heating at 60° C. for 7 minutes before deparaffinizing in histoclear followed by the rehydration in graded series of alcohol (100%, 90%, 80%, and 70% ethanol in ddH2O) and finally in PBS for 5 minutes. Antigen retrieval was done in a bench-top 2100-Retriever according to the protocol of the manufacturer (Electron Microscopy Sciences, Hatfield, Pa.). The sections were blocked with 3% bovine serum albumin (BSA) in a humidified chamber for 1 hour at room temperature followed by overnight incubation with the anti-CD31 (Santa Cruz Biotechnology, Santa Cruz, Calif.), anti-PCNA antibody (Santa Cruz Biotechnology), anti-GRP78 antibody (Santa Cruz Biotechnology), or anti-His tag antibody (Santa Cruz Biotechnology) at 4° C. The following day, unbound antibody was washed with 1×PBS containing 0.1% Tween-20 (1×PBST) and incubated with the corresponding Alexafluor 568 secondary antibodies (Life Technologies) for 1.5 hours at 37° C. Sections were rinsed again and incubated for 10 minutes with DAPI at 1 μg/mL to visualize the DNA in the cell nucleus. […]"}, "[12]": {"target": "T1, GRP78", "assay": "Pull down assay with HUVEC plasma membrane extract", "type": "binding", "design": "Incubation of ISM with plasma membrane extract from HUVECs; endogenous in cells; host or cells: HUVEC plasma membrane fraction", "details": "plasma membrane extract from HUVECs", "text": "His-tagged ISM and its binding partners from plasma membrane extract were pulled down by Epitope Tag Protein Isolation Kit with separation columns purchased from μMACS (Bergisch Gladbach, Germany). For searching potential binding partners of ISM, eluants were subjected to SDS-PAGE and stained with coomassie blue. Excised bands were identified by MALDI-TOF-TOF mass spectrometry analysis.\nas §1"}},
  "note": "Positions of bridges follow the written chain, without caps; N, C: chain ends. No end group written: not given here. *: point of attachment. FITC = O=C1OC2(c3ccc(O)cc3Oc3cc(O)ccc32)c2ccc(NC(=S)*)cc21",
  "data": [
    {"molecule": "FITC-RKD: FITC-CRKDC, disulfide bridge 1-5 ({FITC}-CRKDC; disulfide 1-5)", "values": [
      {"measurement": "binding to cell-surface GRP78 by co-immunoprecipitation", "setting": "[1]; anti-FITC antibody, plasma membrane fraction of cultured HUVECs", "value": "binds cell-surface GRP78"},
      {"measurement": "uptake by cultured HUVECs", "setting": "[2]", "value": "efficiently taking up by cultured HUVECs"},
      {"measurement": "binding to 4T1 cell surface", "setting": "[3]", "value": "binds 4T1 breast cancer cell surface in vitro"},
      {"measurement": "cell types labelled in the tumor", "setting": "[4]", "value": "Both tumor cells and tumor blood vessel endothelial cells are labeled"},
      {"measurement": "labelling of xenograft melanoma", "setting": "[4]", "value": "preferentially labelled xenograft melanoma"}
    ]},
    {"molecule": "Isthmin (ISM), recombinant His-tagged protein (from UniProt A2ATD1 30-454) (ligand)", "values": [
      {"measurement": "Kd", "setting": "[5]", "value": 8.6, "unit": "nM"}
    ]},
    {"molecule": "cRAA: Negative control mutant peptide, sequence CRAAC, disulfide bridge 1-5 (disulfide 1-5) [reference compound]", "values": [
      {"measurement": "EC attachment and adhesion", "setting": "[6]", "value": "lost the ability to mediate EC adhesion"},
      {"measurement": "affinity for GRP78, fold less than cRKD", "setting": "[7]; relative to cRKD", "value": "about 50 fold"},
      {"measurement": "pro-apoptotic activity at 1 μM", "setting": "[8]; 1 μM peptide, cultured ECs with VEGF", "value": "almost no activity"},
      {"measurement": "induction of EC apoptosis (pro-apoptotic activity)", "setting": "[8]; cultured ECs in the presence of VEGF, 24 h", "value": "completely destroyed the proapoptotic activity"},
      {"measurement": "anti-angiogenic activity at 1 μM", "setting": "[9]; 1 μM peptide", "value": "no anti-angiogenic activity"},
      {"measurement": "inhibition of EC tube-like structure formation on Matrigel", "setting": "[9]; dose-dependence", "value": "lost this activity"}
    ]},
    {"molecule": "CRAAC (disulfide 1-5, Mutant control of cRKD, with K and D both changed to A; also called control-cyclic RAA peptide)", "note": "[Cyclic RAA peptide (cRAA)]", "values": [
      {"measurement": "fold lower affinity than cRKD", "setting": "[10]", "value": "~50", "unit": "fold"}
    ]},
    {"molecule": "ISM: Isthmin, a 60 kDa secreted angiogenesis inhibitor; recombinant His-tagged mouse protein (protein, UniProt A2ATD1 30-454, looked up, His tag, recombinant His-tagged mouse protein) Isthmin-1: SDRQDAAAGNNNLNLESDSTSETSFPLSKEAPEEHQVVHQPFPRQRFPPETGHPSLQRDGPRSFLLDLPNFPDLSKADINGQNPNIQVTIEVVDGPDSEAEKDQHPENKPSWSLPAPDWRAWWQRSLSLARTNSGDQDDKYDSTSDDSNFLSVPRGWDRPAPGHRTFETKEQPEYDSTDGEGDWSLWSVCSVTCGNGNQKRTRSCGYACIATESRTCDRPNCPGIEDTFRTAATEVSLLAGSEEFNATKLFEVDMDSCERWMSCKSEFLKKYMHKVINDLPSCPCSYPTEVAYSTADIFDRIKRKDFRWKDASGPKEKLEIYKPTARYCIRSMLSLESTTLAAQHCCYGDNMQLITRGKGAGTPNLISTEFSAELHYKVDVLPWIICKGDWSRYNEARPPNNGQKCTESPSDEDYIKQFQEAREY", "values": [
      {"measurement": "Kd", "setting": "[7]; purified recombinant GRP78", "value": 8.6, "unit": "nM"},
      {"measurement": "ISM-GRP78 interaction by co-immunoprecipitation", "setting": "[1]; purified recombinant ISM and GRP78 proteins", "value": "confirmed the ISM-GRP78 interaction"},
      {"measurement": "tumor growth", "setting": "[11]; 250 μg/mouse intravenous every 2 days, days 0-10, subcutaneous B16F10", "value": "suppressed tumor growth"},
      {"measurement": "vascularization (blood vessels supplying the tumor)", "setting": "[11]; 250 μg/mouse intravenous, day 14", "value": "reduced vascularization"},
      {"measurement": "tumor angiogenesis, tumor cell proliferation and tumor cell apoptosis", "setting": "[11]; immunofluorescence of tumor sections", "value": "suppress tumor angiogenesis, tumor cell proliferation and induce tumor cell apoptosis"},
      {"measurement": "apoptosis of tumor cells and tumor ECs (CD31/TUNEL double staining)", "setting": "[11]; tumor sections, compared to controls", "value": "both tumor cells as well as tumor ECs became apoptotic"},
      {"measurement": "tumor vessel density (anti-CD31 immunofluorescence)", "setting": "[11]; tumor tissue sections", "value": "obvious reduction of tumor vessel density"},
      {"measurement": "binding partner of ISM identified by pull-down", "setting": "[12]", "value": "identified GRP78 as a ISM binding protein"}
    ]}
  ]
}
